Laboratory results taken from US12668638B2, “Antibodies that bind EGFR and cMET” (Merus B.V., priority 2017, dated 2026).

Columns and labels:
[1] = test system: HCC827 tumor cells; experiment: HCC827 xenograft in NSG-hHGFki mice; assay type: in vivo, mouse
Excerpt: The VH of the cMET variable domain of PB19748 comprises the amino acid sequence of MF8230 (see FIG. 8). […] The VH of the EGFR variable domain of PB19748 comprises the amino acid sequence of MF8233 of FIG. 7. […] In the chosen model, HCC827 tumor cells are engrafted into immunodeficient NOD SCID gamma (NSG) human hepatocyte growth factor knock-in (hHGFki) mice, that express human HGF (ligand for cMET) in place of endogenous mouse HGF. […] They have no T or B cells, lack functional NK cells, and are deficient in cytokine signaling, which allows for better tumor engraftment.
Prior to tumor cell engraftment, the cell cycle of HCC827 cells was boosted by culturing the cells overnight in medium supplemented with 20% fetal bovine serum (FBS) at confluency not exceeding 80%. […] The resulting tumors were measured twice each week using calipers. When the mean tumor volume reached approximately 200 mm^3, the mice were randomized into two groups (4-7 mice per group depending on tumor growth and volume) and drug treatment was started.
Tumor volume was measured twice each week using calipers, and mean tumor volume (and SEM) calculated for each group. When tumor sizes reached 1500 mm^3 mice were euthanized. Treatment was stopped after day 48, and tumor volume in surviving mice was measured up to day 62. […]
As before, tumor volume was monitored and mean tumor volume (and SEM) calculated in each group. All treatments were stopped after day 60, and tumor volume in surviving mice was measured up to day 82.
As before, tumor volume was monitored and mean tumor volume (and SEM) calculated in each group. All treatments were stopped after day 93, and tumor volume in surviving mice was measured up to day […].
In a fourth experiment the effect of a later administration of PB19478 was tested.
On day 51 when the mean tumor volume had clearly passed the 500 mm 3 mark the mice were randomized into two groups. […] As before, tumor volume was monitored and mean tumor volume (and SEM) calculated in each group. All treatments were stopped after day 72.

[2] = test system: cMET and EGFR; settings: cited from earlier work
[3] = test system: tumor cell line H1975; settings: H1975 expresses the cMET ligand HGF; cited from earlier work

With C#Cc1cccc(Nc2ncnc3cc(OCCOC)c(OCCOC)cc23)c1 [erlotinib, reference compound] as the molecule, how does the anti-tumor response ([1]; mouse, in vivo) read?
The anti-tumor response was “able to induce an anti-tumor response”.

What does the source list for “JNJ-61186372: bispecific cMETxEGFR antibody produced by controlled Fab-arm exchange (Moores et al 2016)”?
affinity imbalance, greater affinity for cMET than EGFR [2]: approximately 40 ×; activity in vivo [3]: active in vivo

B1: LY2875358: humanized monoclonal cMET antibody emibetuzumab (antibody, chains of the INN, looked up, V domains shown)
VH: QVQLVQSGAEVKKPGASVKVSCKASGYTFTDYYMHWVRQAPGQGLEWMGRVNPNRRGTTYNQKFEGRVTMTTDTSTSTAYMELRSLRSDDTAVYYCARANWLDYWGQGTTVTVSS
VL: DIQMTQSPSSLSASVGDRVTITCSVSSSVSSIYLHWYQQKPGKAPKLLIYSTSNLASGVPSRFSGSGSGTDFTLTISSLQPEDFATYYCQVYSGYPLTFGGGTKVEIK
What does the source list for B1?
anti-tumor response ([1]; antibody 25 mg/kg weekly i.p. plus erlotinib 6 mg/kg daily gavage): less effective than PB8532; anti-tumor response ([1]; antibody 25 mg/kg weekly i.p. plus erlotinib 6 mg/kg daily gavage, listed as LY3875358): less effective; anti-tumor response ([1]; antibody 25 mg/kg weekly i.p. plus vehicle (without erlotinib)): less effective than PB8532; anti-tumor response ([1]; antibody 25 mg/kg weekly i.p. plus vehicle (without erlotinib), listed as LY3875358): less effective
